This note sets out measurements from patent US20220242973A1 (Molecular Partners, published 2022).

Test [1] addresses T1, Human FAP expressed on the cell surface (WI38, CHO-FAP1.9, U87MG cells) (human, UniProt Q12884 1-760).
T1 construct: whole, on cells; Endogenous on WI38 and U87MG cells; from a human FAP cDNA (OriGene) in CHO-FAP1.9 cells; also called hFAP; FAP+ cells
T1 sequence (looked up): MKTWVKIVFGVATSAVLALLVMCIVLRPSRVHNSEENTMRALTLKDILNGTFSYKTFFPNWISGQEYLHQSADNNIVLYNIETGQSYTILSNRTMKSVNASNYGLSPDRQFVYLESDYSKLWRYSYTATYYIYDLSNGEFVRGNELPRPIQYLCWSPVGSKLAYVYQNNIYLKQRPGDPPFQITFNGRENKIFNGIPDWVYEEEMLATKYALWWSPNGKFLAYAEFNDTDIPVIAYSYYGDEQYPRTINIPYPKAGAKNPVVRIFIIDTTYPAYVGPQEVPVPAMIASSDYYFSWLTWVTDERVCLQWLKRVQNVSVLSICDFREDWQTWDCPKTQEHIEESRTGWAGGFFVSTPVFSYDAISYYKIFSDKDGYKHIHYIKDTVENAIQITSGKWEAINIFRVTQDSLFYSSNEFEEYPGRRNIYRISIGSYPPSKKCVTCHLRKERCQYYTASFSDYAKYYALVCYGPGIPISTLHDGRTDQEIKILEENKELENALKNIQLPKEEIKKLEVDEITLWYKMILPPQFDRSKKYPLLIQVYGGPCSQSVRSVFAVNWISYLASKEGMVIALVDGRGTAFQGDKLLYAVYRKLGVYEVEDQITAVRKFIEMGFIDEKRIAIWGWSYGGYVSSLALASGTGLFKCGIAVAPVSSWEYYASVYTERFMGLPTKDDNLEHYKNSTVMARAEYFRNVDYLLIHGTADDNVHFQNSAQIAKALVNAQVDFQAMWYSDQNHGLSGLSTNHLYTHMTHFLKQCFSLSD
Put plainly: FACS on CHO-FAP1.9 cells (human FAP transfectants).

The target in test [2] is T1, Human FAP expressed on the cell surface …. The test is described as follows: FACS on WI38 cells. The protocol:
Using multi-well plates, 20,000 WI38 cells were added per well in 50 μl of PBS. 50 μl of appropriate dilutions (2× dilution steps) of ankyrin repeat protein was then added to the cells and incubated for 30 minutes on ice. After the ankyrin repeat protein-binding reaction, cells were washed twice with PBS. Direct immunofluorescent detection of the His-tagged ankyrin repeat proteins using Penta-His AF647 conjugate (QIAgen) and determination of live cells using LIVE/DEAD™ Fixable Green Dead Cell Stain Kit (ThermoFisher) were then performed together in one step. The Penta-His AF647 conjugate and the LIVE/DEAD™ Fixable Green dye were applied to the cells together in 1/200 (Penta-His) and 1/1000 (LID Fixable) final dilutions and incubated for 20-30 minutes on ice. After washing the cells with PBS, cells were re-suspended in 1× CellFix™ buffer (BD Biosciences) (10× stock was diluted 1/10 in water). […] Acquisition and FACS analysis, including the determination of median fluorescence intensity (MFI), were done within 5 days after staining using an AttuneNxT instrument. […]
Similarly, binding of the engineered ankyrin repeat proteins, i.e. DARPin® protein #34 and DARPin® protein #35, to FAP-expressing WI38 cells was also tested essentially as described above. Fold increase MFI was calculated by dividing the sample MFI by the MFI of the background control. […]

Test [3] addresses T2, Recombinant human FAP (fibroblast activation protein) (human, UniProt Q12884 26-760).
T2 sequence (looked up): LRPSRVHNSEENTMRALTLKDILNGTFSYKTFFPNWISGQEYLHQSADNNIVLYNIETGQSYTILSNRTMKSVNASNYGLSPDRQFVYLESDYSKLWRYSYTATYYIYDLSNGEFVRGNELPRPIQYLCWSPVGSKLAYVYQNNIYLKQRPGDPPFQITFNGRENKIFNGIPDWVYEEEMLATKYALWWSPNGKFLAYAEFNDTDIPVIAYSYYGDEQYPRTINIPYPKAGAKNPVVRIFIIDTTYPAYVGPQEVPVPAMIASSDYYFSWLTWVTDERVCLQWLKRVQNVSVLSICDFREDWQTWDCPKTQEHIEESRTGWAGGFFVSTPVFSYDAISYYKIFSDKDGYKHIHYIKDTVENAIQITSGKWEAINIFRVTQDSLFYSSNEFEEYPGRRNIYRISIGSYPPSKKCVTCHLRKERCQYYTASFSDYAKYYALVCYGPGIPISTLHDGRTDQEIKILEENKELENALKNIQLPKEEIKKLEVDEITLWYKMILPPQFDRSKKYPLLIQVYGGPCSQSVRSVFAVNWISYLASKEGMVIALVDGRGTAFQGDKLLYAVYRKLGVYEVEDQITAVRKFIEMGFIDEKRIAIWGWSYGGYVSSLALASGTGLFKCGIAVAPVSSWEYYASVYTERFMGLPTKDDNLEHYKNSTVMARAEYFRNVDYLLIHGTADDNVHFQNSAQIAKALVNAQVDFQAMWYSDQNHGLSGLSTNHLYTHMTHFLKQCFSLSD
The test is described as follows: cell-based or functional assay.

Test [4] concerns the target T1, Human FAP expressed on the cell surface …. The test is described as follows: FACS on FAP-expressing WI38 cells, Penta-His AF647 detection. In a few lines:
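WI38 cells (20,000/well) incubated 30 min on ice with 2-fold dilutions of His-tagged ankyrin repeat proteins, washed, stained with Penta-His AF647 plus live/dead dye, fixed. Median fluorescence by flow cytometry; EC50 from non-linear regression of binding curves.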

Changes are numbered by the printed parent chain.

B1: DARPin® protein #34 (designed binder)
chain: MRGSHHHHHHGSDLGKKLLEAARAGQDDEVRELLKAGADVNAKDVLGWTPLHLAAFEGHLEIVEVLLKAGADVNAKDKKGWTPLQLAARTGHLEIVEVLLKAGADVNAKDHIGATPLHLAAWQGHPEIVEVLLKAGADVNAQDKSGKTPADLAADAGHEDIAEVLQKAA
As for B1, the EC50 in test [1] amounted to 1.19 nM; in test [2], 0.736 nM. The “FAP activity (%)” value in test [3] was determined as 93%.

B2: DARPin® protein #36 (designed binder)
chain: B1 chain with E32I, K35A, A168L, A169N
As for B2, it took 0.235 nM to reach a half-maximal effect in test [4] (EC50).

B3: DARPin® protein #38 (designed binder)
chain: MRGSHHHHHHGSDLGKKLLEAARAGQDDEVRELLKAGADVNAKDEVGRTPLHLAAQIGHLEIVEVLLKAGADVNAKNRWGVTPLHVAAWVGHLEIVEVLLKAGADVNAKDQQGATPLHLAAIRGHLEIVEVLLKAGADVNAQDKSGKTPADLAADAGHEDIAEVLQKLN
The molecule B3 showed an EC50 in test [4] of 0.106 nM.

B4: DARPin® protein #39 (designed binder)
chain: MRGSHHHHHHGSDLGKKLLEAARAGQDDEVRELLKAGADVNAKDEWGKTPLHLAAIRGHLEIVEVLLKAGADVNAKDTHGITPLHLAAFVGHLEIVEVLLKAGADVNAKDYLGRTPLHIAAAKGHLEIVEVLLKAGADVNAQDKSGKTPADLAADAGHEDIVEVLQKLN
As to B4, the concentration for a half-maximal effect (EC50) in test [4] came to 0.203 nM.

B5: DARPin® protein #35 (designed binder)
chain: MRGSHHHHHHGSDLGEKLLVAALYGQDDEVRELLKAGADVNAKDQWGLTPLHKAALQGHLEIVEVLLKAGADVNAKDERGHTPLHWAARFGHLEIVEVLLKAGADVNAQDQKGYTPADLAALWGHEDIAEVLQKAA
As to B5, the 50% effective concentration (EC50) in test [1] was found to be 2.02 nM; in test [2], 0.994 nM. Also, the “FAP activity (%)” value in test [3] was found to be 90%.

B6: DARPin® protein #37 (designed binder)
chain: B5 chain with E32I, K35A, A135L, A136N
In test [4], B6 gave an EC50 of 0.118 nM.

As usually defined, the EC50 is the concentration giving half of the maximal effect. Read a low EC50 as higher potency in that assay.
